Molecular target: hPCSK9 (Sino Biologicals, China) (human) (UniProt Q8NBP7)
Experiment: cell-based or functional assay

hepatic LDL-R expression, Percentage of baseline (%), mouse hPCSK9 challenge, inhibitor 22 nmol/kg: 157%
Substance: Alirocumab (antibody)

From patent US20200165313A1, “EGF(A) ANALOGUES, PREPARATION, FORMULATIONS AND USES THEREOF” (Novo Nordisk A/S, priority 2017, published 2020)
